Data on one molecule can be found in patent US20250049939A1 (TUBULIS, published 2025).

The target of assay [1] is T1, human CD64 (high affinity Fc receptor, FCGR1) on cells (human, UniProt P12314 16-374).
T1 construct: whole, on cells; also called hCD64; human FCGR1
Put plainly: flow cytometry, cell surface binding to Ba/F3-pMIY cells expressing CD64, specific MFI, mean ± s.d. of n=3. (Flow cytometry measures light scatter and fluorescence of single cells or particles in a stream.)

Assay [2] concerns the target T2, PDGFRα on Ba/F3 cells (UniProt P16234 24-1089, limits assumed).
T2 construct: whole, on cells
Kind of assay: flow cytometry, cell surface binding to Ba/F3 pMIY cells expressing PDGFRα, MFI ratio normalized to IgG1, mean ± s.d. of n=3.

Assay [3] concerns the target T3, rat FLT3 expressed on Ba/F3 cells (rat, UniProt A0A0G2JW59 27-982).
T3 construct: whole, on cells
T3 sequence: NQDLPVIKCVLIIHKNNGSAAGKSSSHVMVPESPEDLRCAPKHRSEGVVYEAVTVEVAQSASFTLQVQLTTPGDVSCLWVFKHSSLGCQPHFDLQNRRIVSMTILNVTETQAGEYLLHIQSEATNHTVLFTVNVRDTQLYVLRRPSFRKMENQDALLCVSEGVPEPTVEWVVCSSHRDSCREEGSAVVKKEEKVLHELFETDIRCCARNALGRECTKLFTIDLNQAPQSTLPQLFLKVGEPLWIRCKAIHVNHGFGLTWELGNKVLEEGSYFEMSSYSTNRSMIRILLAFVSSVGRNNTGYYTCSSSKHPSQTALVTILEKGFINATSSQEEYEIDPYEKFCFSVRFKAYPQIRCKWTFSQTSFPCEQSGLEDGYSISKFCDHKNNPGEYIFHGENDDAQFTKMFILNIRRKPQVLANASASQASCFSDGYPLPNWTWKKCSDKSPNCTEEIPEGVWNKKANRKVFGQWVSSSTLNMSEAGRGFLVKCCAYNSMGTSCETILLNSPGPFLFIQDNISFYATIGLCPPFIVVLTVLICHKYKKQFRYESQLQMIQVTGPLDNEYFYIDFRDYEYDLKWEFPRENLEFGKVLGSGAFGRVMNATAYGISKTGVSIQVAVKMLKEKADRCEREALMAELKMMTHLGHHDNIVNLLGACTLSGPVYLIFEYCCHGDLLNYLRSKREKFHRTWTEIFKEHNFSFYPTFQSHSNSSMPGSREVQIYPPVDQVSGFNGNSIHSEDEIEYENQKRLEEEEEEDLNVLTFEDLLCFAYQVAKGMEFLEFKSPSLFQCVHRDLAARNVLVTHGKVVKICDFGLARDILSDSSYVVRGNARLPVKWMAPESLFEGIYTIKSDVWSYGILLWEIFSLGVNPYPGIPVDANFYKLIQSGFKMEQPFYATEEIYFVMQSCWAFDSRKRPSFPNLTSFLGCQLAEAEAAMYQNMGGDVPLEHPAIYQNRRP
Kind of assay: flow cytometry, cell surface binding to Ba/F3 pMIY cells expressing rFLT3wt, MFI ratio normalized to IgG1, mean ± s.d. of n=3.

The target of assay [4] is T4, c-KIT on Ba/F3 cells (UniProt P10721 26-976, limits assumed).
T4 construct: whole, on cells
Put plainly: flow cytometry, cell surface binding to Ba/F3 pMIY cells expressing c-KIT, MFI ratio normalized to IgG1, mean ± s.d. of n=3.

The target in assay [5] is T5, murine FLT3 expressed on Ba/F3 cells (mouse, UniProt Q00342 28-1000).
T5 construct: whole, on cells; also called mFLT3 wt; mFLT3
T5 sequence (looked up): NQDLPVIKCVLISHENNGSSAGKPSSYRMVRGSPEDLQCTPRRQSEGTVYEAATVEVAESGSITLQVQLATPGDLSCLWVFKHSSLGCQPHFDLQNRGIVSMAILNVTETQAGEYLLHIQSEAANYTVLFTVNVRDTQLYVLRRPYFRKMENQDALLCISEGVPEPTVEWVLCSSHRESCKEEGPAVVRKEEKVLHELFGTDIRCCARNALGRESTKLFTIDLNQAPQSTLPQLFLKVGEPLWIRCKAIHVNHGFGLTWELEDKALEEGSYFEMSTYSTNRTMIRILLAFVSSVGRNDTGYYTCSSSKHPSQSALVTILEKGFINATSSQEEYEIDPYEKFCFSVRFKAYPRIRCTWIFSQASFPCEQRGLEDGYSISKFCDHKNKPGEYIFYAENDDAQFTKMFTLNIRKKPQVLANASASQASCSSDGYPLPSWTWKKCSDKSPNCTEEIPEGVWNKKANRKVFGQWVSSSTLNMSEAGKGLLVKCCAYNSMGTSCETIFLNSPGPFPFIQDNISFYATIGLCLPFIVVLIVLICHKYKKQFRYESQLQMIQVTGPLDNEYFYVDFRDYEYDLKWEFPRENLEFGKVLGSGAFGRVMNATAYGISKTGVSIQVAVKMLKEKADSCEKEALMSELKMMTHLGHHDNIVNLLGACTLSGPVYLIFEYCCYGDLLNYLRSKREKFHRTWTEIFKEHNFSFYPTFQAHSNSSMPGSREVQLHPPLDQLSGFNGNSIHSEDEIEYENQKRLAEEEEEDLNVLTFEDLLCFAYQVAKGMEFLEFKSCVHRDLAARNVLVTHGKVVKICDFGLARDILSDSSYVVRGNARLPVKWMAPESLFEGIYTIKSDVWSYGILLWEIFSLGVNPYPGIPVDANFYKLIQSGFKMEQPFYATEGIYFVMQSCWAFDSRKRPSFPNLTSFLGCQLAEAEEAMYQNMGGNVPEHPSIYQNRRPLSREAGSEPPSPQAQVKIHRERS
Put plainly: flow cytometry, cell surface binding to Ba/F3 pMIY cells expressing mFLT3wt, MFI ratio normalized to IgG1, mean ± s.d. of n=3.

T2 sequence (P16234 24-1089 limits assumed): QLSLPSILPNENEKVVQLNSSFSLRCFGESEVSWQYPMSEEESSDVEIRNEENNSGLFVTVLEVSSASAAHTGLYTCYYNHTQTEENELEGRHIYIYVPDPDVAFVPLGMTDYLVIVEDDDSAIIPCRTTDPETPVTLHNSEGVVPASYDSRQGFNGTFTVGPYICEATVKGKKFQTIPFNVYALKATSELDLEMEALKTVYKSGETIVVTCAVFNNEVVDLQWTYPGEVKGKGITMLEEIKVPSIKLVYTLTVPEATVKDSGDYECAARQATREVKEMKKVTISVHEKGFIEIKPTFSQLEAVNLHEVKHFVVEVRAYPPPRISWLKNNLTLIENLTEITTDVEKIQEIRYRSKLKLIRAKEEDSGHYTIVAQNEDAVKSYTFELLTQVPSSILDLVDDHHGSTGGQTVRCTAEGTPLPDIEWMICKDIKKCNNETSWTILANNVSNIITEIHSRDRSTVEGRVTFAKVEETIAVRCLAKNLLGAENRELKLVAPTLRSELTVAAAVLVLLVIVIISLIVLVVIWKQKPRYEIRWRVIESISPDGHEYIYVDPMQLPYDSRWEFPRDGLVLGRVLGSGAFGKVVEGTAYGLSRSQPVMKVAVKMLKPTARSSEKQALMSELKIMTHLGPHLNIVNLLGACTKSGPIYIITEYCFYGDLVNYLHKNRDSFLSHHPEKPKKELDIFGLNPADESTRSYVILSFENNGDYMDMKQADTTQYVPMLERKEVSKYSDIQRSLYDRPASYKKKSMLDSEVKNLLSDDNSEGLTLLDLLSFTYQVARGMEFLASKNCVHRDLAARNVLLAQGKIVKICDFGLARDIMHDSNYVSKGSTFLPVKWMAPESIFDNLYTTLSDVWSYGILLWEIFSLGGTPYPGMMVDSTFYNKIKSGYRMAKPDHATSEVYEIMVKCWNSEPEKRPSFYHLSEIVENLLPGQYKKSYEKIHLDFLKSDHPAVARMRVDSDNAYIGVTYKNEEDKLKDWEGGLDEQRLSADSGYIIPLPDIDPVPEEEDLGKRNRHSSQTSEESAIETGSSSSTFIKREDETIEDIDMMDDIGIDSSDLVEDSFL
T4 sequence (P10721 26-976 limits assumed): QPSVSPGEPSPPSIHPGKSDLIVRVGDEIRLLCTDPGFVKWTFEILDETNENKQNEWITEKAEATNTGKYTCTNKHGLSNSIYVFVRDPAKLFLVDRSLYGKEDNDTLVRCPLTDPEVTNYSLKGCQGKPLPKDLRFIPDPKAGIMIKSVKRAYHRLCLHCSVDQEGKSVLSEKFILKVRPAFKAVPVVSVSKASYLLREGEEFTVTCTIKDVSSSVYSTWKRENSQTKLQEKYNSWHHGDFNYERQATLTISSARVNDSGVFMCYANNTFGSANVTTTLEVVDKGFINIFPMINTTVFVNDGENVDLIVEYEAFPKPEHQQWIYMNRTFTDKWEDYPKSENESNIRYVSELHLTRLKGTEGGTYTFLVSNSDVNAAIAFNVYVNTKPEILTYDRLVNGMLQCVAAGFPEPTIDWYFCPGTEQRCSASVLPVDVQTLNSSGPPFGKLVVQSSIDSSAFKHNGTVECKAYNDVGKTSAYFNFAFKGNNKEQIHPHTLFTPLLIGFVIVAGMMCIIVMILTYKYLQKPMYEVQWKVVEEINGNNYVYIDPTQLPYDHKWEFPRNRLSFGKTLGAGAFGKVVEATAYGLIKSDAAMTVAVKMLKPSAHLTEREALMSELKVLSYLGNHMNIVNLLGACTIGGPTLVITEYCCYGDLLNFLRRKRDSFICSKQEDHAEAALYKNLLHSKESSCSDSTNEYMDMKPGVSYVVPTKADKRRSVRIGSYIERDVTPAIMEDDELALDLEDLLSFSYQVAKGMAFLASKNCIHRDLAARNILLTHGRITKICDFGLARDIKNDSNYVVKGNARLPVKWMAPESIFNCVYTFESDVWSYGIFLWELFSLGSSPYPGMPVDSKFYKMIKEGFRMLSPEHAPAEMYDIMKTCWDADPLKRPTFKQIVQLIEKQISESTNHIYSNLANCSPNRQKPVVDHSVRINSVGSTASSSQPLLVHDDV
T1 sequence (P12314 16-374): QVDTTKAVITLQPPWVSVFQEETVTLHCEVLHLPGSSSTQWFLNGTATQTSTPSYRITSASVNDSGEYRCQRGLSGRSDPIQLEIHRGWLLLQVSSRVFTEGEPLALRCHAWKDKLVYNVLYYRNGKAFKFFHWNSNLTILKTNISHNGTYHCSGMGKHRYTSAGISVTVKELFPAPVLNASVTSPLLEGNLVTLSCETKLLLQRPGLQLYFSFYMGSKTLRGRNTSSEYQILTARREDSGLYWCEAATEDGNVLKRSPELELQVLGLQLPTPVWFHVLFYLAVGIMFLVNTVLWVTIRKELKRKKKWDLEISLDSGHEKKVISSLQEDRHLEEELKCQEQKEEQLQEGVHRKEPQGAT

B1: Humanized clone 3 of 20D9 (VH3 + VK1) (antibody, human IgG1, kappa)
heavy: not shown
light: DIQMTQSPSVLSASVGDRVTINCRASQNINKELNWYQQKLGEAPKLLIYNTNNLQSGVPSRFSGSGSGTDYTLTISSLQPEDVATYFCFQHKSWPLTFGSGTKLEIKRTVAAPSVFIFPPSDEQLKSGTASVVCLLNNFYPREAKVQWKVDNALQSGNSQESVTEQDSKDSTYSLSSTLTLSKADYEKHKVYACEVTHQGLSSPVTKSFNRGEC
notes: also called candidate #3; #3 mab
In the case of B1, the binding result in assay [1] is recorded as “binds”; in assay [2], “no binding”; in assay [3], “no binding”; in assay [4], “no binding”; in assay [5], “no binding”.
